Results as given in the PETadex activity labels (doi:10.3390/polym4010617).

Key:
PLA [1] = assay: Proxy for plastic degradation [HPLC-UV]; settings: pH 7; 37 °C
pNP-C2 = assay: Proxy for plastic degradation [Specific activity]; settings: pH 7
pNPB = assay: Proxy for plastic degradation [Specific activity]; settings: pH 7
PLA [2] = assay: Proxy for plastic degradation [Released monomer concentration (HPLC/LC-MS) (LA )]; settings: pH 7
[3] = Proxy for plastic degradation [Released monomer concentration (HPLC/LC-MS) (BA)] (mmol/mol of enzyme); settings: pH 7
[4] = Proxy for plastic degradation [Released monomer concentration (HPLC/LC-MS) (TA)] (mmol/mol of enzyme); settings: pH 7
PET [5] = assay: as above; settings: pH 7
[6] = Proxy for plastic degradation [Released monomer concentration (HPLC/LC-MS) (HEB)] (mmol/mol of enzyme); settings: pH 7
[7] = Proxy for plastic degradation [Released monomer concentration (HPLC/LC-MS) (MHET)] (mmol/mol of enzyme); settings: pH 7
PET [8] = assay: as above; settings: pH 7

B1: unnamed (protein)
chain: MANPYERGPNPTNSSIEALRGPFRVDEERVSRLQARGFGGGTIYYPTDNNTFGAVAISPGYTGTQSSISWLGERLASHGFVVMTIDTNTTLDQPDSRASQLDAALDYMVEDSSYSVRNRIDSSRLAAMGHSMGGGGTLRLAERRPDLQAAIPLTPWHTDKTWGSVRVPTLIIGAENDTIASVRSHSEPFYNSLPGSLDKAYLELDGASHFAPNLSNTTIAKYSISWLKRFVDDDTRYTQFLCPGPSTGWGSDVEEYRSTCPF
In the case of B1, the “Proxy for plastic degradation” value (PLA [1]) is reported as 14.5 µM, the “Proxy for plastic degradation” value (pNP-C2) is reported as 550 U/mg and the “Proxy for plastic degradation” value (pNPB) is reported as 500 U/mg. For the same protein, the “Proxy for plastic degradation” value (PLA [2]) was 14.5 µM, the “Proxy for plastic degradation” value [3] was 58 and the “Proxy for plastic degradation” value [4] was 18. The “Proxy for plastic degradation” value (PET [5]) was 21.5, the “Proxy for plastic degradation” value [6] was 53 and the “Proxy for plastic degradation” value [7] was 35. The “Proxy for plastic degradation” value (PET [8]) was 19.8.
